Data from publication PMC10979099 (The Journal of Biological Chemistry, 2024).

Molecular target: Sra1 (human, UniProt Q7L576 1-1253)
Test: reconstitution and co-purification

Sra1, sequence (Q7L576 whole entry): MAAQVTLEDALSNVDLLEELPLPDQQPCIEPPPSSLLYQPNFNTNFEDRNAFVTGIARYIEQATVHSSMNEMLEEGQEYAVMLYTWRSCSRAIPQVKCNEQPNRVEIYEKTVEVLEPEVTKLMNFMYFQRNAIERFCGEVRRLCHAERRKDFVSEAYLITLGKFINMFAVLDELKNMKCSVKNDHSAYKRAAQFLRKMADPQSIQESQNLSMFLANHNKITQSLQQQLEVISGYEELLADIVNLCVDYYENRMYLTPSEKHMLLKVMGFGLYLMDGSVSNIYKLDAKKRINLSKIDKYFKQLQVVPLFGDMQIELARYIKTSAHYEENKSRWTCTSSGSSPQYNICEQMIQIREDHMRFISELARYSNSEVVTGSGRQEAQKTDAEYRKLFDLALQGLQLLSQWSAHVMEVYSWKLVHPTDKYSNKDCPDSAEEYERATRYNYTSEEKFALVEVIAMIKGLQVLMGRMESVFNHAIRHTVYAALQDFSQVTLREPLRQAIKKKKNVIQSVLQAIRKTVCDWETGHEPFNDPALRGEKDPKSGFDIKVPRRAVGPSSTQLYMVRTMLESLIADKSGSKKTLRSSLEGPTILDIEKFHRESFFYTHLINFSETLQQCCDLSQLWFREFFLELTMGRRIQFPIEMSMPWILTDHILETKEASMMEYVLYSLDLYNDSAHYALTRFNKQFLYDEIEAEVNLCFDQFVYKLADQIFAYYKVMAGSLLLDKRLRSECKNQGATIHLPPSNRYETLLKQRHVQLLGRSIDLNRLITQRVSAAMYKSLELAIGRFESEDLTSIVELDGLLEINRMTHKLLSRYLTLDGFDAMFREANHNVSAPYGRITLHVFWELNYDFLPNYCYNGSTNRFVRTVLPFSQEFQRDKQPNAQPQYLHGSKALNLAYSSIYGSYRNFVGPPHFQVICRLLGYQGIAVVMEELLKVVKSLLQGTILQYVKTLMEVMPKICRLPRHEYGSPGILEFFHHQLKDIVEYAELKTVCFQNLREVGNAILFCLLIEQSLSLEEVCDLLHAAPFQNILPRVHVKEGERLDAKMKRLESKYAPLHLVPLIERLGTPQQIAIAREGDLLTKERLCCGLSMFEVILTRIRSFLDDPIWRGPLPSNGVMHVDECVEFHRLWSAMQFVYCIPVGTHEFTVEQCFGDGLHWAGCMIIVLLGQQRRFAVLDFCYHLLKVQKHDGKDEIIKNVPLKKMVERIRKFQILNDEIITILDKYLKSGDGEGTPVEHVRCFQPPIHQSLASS

binding result: binds
B1: Nap1 (natural protein)
chain: MSRSVLQPSQQKLAEKLTILNDRGVGMLTRLYNIKKACGDPKAKPSYLIDKNLESAVKFIVRKFPAVETRNNNQQLAQLQKEKSEILKNLALYYFTFVDVMEFKDHVCELLNTIDVCQVFFDITVNFDLTKNYLDLIITYTTLMILLSRIEERKAIIGLYNYAHEMTHGASDREYPRLGQMIVDYENPLKKMMEEFVPHSKSLSDALISLQMVYPRRNLSADQWRNAQLLSLISAPSTMLNPAQSDTMPCEYLSLDAMEKWIIFGFILCHGILNTDATALNLWKLALQSSSCLSLFRDEVFHIHKAAEDLFVNIRGYNKRINDIRECKEAAVSHAGSMHRERRKFLRSALKELATVLSDQPGLLGPKALFVFMALSFARDEIIWLLRHADNMPKKSADDFIDKHIAELIFYMEELRAHVRKYGPVMQRYYVQYLSGFDAVVLNELVQNLSVCPEDESIIMSSFVNTMTSLSVKQVEDGEVFDFRGMRLDWFRLQAYTSVSKASLGLADHRELGKMMNTIIFHTKMVDSLVEMLVETSDLSIFCFYSRAFEKMFQQCLELPSQSRYSIAFPLLCTHFMSCTHELCPEERHHIGDRSLSLCNMFLDEMAKQARNLITDICTEQCTLSDQLLPKHCAKTISQAVNKKSKKQTGKKGEPEREKPGVESMRKNRLVVTNLDKLHTALSELCFSINYVPNMVVWEHTFTPREYLTSHLEIRFTKSIVGMTMYNQATQEIAKPSELLTSVRAYMTVLQSIENYVQIDITRVFNNVLLQQTQHLDSHGEPTITSLYTNWYLETLLRQVSNGHIAYFPAMKAFVNLPTENELTFNAEEYSDISEMRSLSELLGPYGMKFLSESLMWHISSQVAELKKLVVENVDVLTQMRTSFDKPDQMAALFKRLSSVDSVLKRMTIIGVILSFRSLAQEALRDVLSYHIPFLVSSIEDFKDHIPRETDMKVAMNVYELSSAAGLPCEIDPALVVALSSQKSENISPEEEYKIACLLMVFVAVSLPTLASNVMSQYSPAIEGHCNNIHCLAKAINQIAAALFTIHKGSIEDRLKEFLALASSSLLKIGQETDKTTTRNRESVYLLLDMIVQESPFLTMDLLESCFPYVLLRNAYHAVYKQSVTSSA
